# In article PMC6978347:
# How the values were obtained:
# [1] = molecular target: polymerization-deficient p62^1–102 (D69A/D73A) (human) (UniProt Q13501); assay: ITC; VP-ITC, 25 °C, 10 mM HEPES pH 7.5, 150 mM NaCl; p62 D69A/D73A in the cell (5–20 μM), partner PB1 domain in the syringe (25–100 μM); one-site model; mean of three measurements
# [2] = molecular target: p62 PB1 (Homo sapiens) (UniProt Q13501); conditions: cited from earlier work
Kd [1] [nM],Substance,Kd [2] [nM]
12.6,NBR1^1–85 (human NBR1–PB1) (from UniProt Q14596 1-85) (domain or fragment),
,p62 PB1 (from UniProt Q13501),6
8.9,PKCζ^11–101 (pKCζ–PB1) (from UniProt Q05513 11-101) (domain or fragment),
